Experimental data published in the DeepSol protein solubility set.

Assay: soluble on expression in E. coli; label from the status in PepcDB or PDB records

Sequence | soluble on expression in E. coli
AHHHHHHGSYRIKDEWGEFLVRLARRAIEEYLRTGREIEPPKDIPPELWEKMGVFVTLNRHNVPPQAALRGCIGFPLPIYPLVKATIKAAIYAAVDDPRFPPVKLEEMNNIVVEVSVLTPPELIEGPPEERPKKIKVGRDGLIVEKGIYTGLLLPQVAVEWGWDEEEFLAETCWKAGLPPDCWLDEDTKVYKFTAEIFEEEYPRGPVKRKPLIPQSQD | soluble
MASKMDTETHYSDVWVVIPAFNEAAVIGKVVTDVRSVFDHVVCVDDGSTDGTGDIARRSGAHLVRHPINLGQGAAIQTGIEYARKQPGAQVFATFDGDGQHRVKDVAAMVDRLGAGDVDVVIGTRFGRPVGKASASRPPLMKRIVLQTGARLSRRGRRLGLTDTNNGLRVFNKTVADGLNITMSGMSHATEFIMLIAENHWRVAEEPVEVLYTEYSKSKGQPLLNGVNIIFDGFLRGRMPR | not soluble
MNPIVINRLQRKLGYTFNHQELLQQALTHRSASSKHNERLEFLGDSILSYVIANALYHRFPRVDEGDMSRMRATLVRGNTLAELAREFELGECLRLGPGELKSGGFRRESILADTVEALIGGVFLDSDIQTVEKLILNWYQTRLDEISPGDKQKDPKTRLQEYLQGRHLPLPTYLVVQVRGEAHDQEFTIHCQVSGLSEPVVGTGSSRRKAEQAAAEQALKKLELE | soluble
MPRTFEEECDFIDRLTDTKFRIKKGFVPNMNVEGRFYVNNSLEQLMFDELKFSCDGQGIGGFLPAVRQIANVASLPGIVGHSIGLPDIHSGYGFSIGNIAAFDVGNPESVISPGGVGFDINCGVRLLRTNLFEENVKPLKEQLTQSLFDHIPVGVGSRGAIPMLASDLVECLEMGMDWTLREGYSWAEDKEHCEEYGRMLQADASKVSLRAKKRGLPQLGTLGAGNHYAEVQVVDEIYDKHAASTMGIDEEGQVVVMLHCGSRGLGHQVATDSLVEMEKAMARDGIVVNDKQLACARINSVEGKNYFSGMAAAANFAWVNRSCITFCVRNAFQKTFGMSADDMDMQVIYDVSHNVAKMEEHMVDGRPRQLCVHRKGATRAFPAHHPLIPVDYQLIGQPVLIGGSMGTCSYVLTGTEQGLVETFGTTCHGAGRALSRAKSRRTITWDSVIDDLKKKEISIRIASPKLIMEEAPESYKNVTDVVDTCDAAGISKKAVKLRPIAVIKG | not soluble
MSLRKSTLSGEVRVRNHQLGIYEKALAKDLSWPERLVLAKSCGFDFVEMSVDETDERLSRLDWSAAQRTSLVAAMIETGVGIPSMCLSAHRRFPFGSRDEAVRERAREIMSKAIRLARDLGIRTIQLAGYDVYYEDHDEGTRQRFAEGLAWAVEQAAASQVMLAVEIMDTAFMNSISKWKKWDEMLASPWFTVYPDVGNLSAWGNDVPAELKLGIDRIAAIHLKDTQPVTGQSPGQFRDVPFGEGCVDFVGIFKTLHKLNYRGSFLIEMWTEKAKEPVLEIIQARRWIEARMQEAGFICEGGSHHHHHH | soluble
MGSDKIHHHHHHMESVYLFSSGTLKRKANTICLETESGRKYIPVENVMDIKVFGEVDLNKRFLEFLSQKRIPIHFFNREGYYVGTFYPREYLNSGFLILKQAEHYINQEKRMLIAREIVSRSFQNMVDFLKKRKVRADSLTRYKKKAEEASNVSELMGIEGNAREEYYSMIDSLVSDERFRIEKRTRRPPKNFANTLISFGNSLLYTTVLSLIYQTHLDPRIGYLHETNFRRFSLNLDIAELFKPAVVDRLFLNLVNTRQINEKHFDEISEGLMLNDEGKSLFVKNYEQALRETVFHKKLNRYVSMRSLIKMELHKLEKHLIGEQVFGSEE | not soluble
MSVVAAVDCGTNSIRLLISEQTPTGLREITRQMTIIRLGEGVDATGKIDPVAIERARVALSGYVDTMLAHKVTAVRMVATSATRDASNKDDFFAMTADLLGAVVPGACAEVISGAEEAELSFIGAVADIPDTDRPVCVIDLGGGSTEFVVGKKTGEILGAYSTQMGCVRLTERLMVSDPPTAEEIAQAREYVDTQLTVALDNVPIMQASMVVGCAGTFTTVAALALGLDSYDPQRIHGSVHTADRLREETQRLIGETSQQRAAHSVMHLGRADVIAGGSVVIEQILAMMQRLGVSDSVTISEKDILDGIVARLLEELEHHHHHH | soluble
MGSDKIHHHHHHMTSSAPLIDFAHDLRYEDIPVHVRSIVREQIIATVGSILGGAQLPVAKSFEQSILATFGRGESSAFGAGTGMSAASAALYNSGLAQLLDWEDWVLISHVGAAVVPVAWALAEERGLRLNDVIVAVTIGNEIAGRTSRAIQRGAYLGNGLPNHQIELPLVAGRLLGLDRRQLGYALGHSCYMAMENCPVGWTTDSKLLVNGLPAMWAIASANMARQDIVGRGDIVEHPAGYLATVSESIDFKELTRDIGVKWYTETLSTKKHAGCAYNLPAAECAMSIREEIAPEDVERIVVECSTATLYVGGRYDDFEPGVLDAYEQGLLTHVGLCFDTKFCVAAAYVHGDLIHEQYLVENATDARVKALYGKISLVPSERLQKAQFQDFKYGATVTVHGRDGRTATRTVEQMLGGYDRPFDHATKLADGARGLLPPEAVDGIVARLRDETGNPLASEISTLINGAP | not soluble
GSMHEYSVVSSLIALCEEHAKKNQAHKIERVVVGIGERSAMDKSLFVSAFETFREESLVCKDAILDIVDEKVELECKDCSHVFKPNALDYGVCEKCHSKNVIITQGNEMRLLSLEMLAE | soluble
MGSDKIHHHHHHMMRDTPLLHRDDPAKDPLVGHIKVTREDWVNTARDVLVNSGVAQVKIATLAGRLDVSRSSFYWYFQNRDELLSALLQDWQTRNTRSITDHCARPSRSIAQALCNFFRCFVDTRQFDPGLDFAIREWARRNEDVRDAIDAADTARLDAVRAMFDRHDYAPEDADARARILYFMQLGYHALDLREDMETRMSRVSAYVLGFTGISPQNTDIEEFLDYVGDLAPHGISGASQRA | not soluble
LSSKYSRNTELRRVEDNDIYRLAKILDENSCWRKLMSIIPKGMDVQACSGAGCLNFPAEIKKGFKYTAQDVFQIDEAANRLPPDQSKSQMMIDEWKTSGKLNERPTVGVLLQLLVQAELFSAADFVALDFLNESTPARPVDGPGALISLELLE | soluble
MKSERILVVKTEDFLKEFGEFEGFMRVNFEDFLNFLDQYGFFRERDEAEYDETTKQVIPYVVIMDGDRVLITKRTTKQSEKRLHNLYSLGIGGHVREGDGATPREAFLKGLEREVNEEVDVSLRELEFLGLINSSTTEVSRVHLGALFLGRGKFFSVKEKDLFEWELIKLEELEKFSGVMEGWSKISAAVLLNLFLTQN | not soluble
MLHRIANGIIEEAAENGCTIIAFEELSGTRDRLPEASWGHKWAFERLYEYVKYKSELHGIDVAVVDPENTSRRCSHCGFTHPDNRDSEAFVCLKCGYENHADYNAAKNIGLRYLRRNQTGDGGGAPVGVRLNRGTLNANGEYETPAGDSGQSGSPRESPTLNEARSSDRAKLEHHHHHH | not soluble
MFAHPANTSAASDNVSKAKLLKMLNAERKENASKDQLIESLKNQLASGGSQKIMEFYRTSVEDLQTKVMRQETIIMEQSKTIEMLSIERSKSVKVHEDQINEMQEVMDKKVKQLEENYEERLKESGNESTASFDKESRDDSLEDFVEVSINEILETAESKRKLKERINHMETHCMTMLKETMEDNKLYSAQLKDQKKQFEVLQNEKAQWEKKEIQQTMELENLRLRLRDIVSLENLIL | not soluble
MKVSEKTYLSIEEIISLPTVSSTNISDDGKNVAFVKRTANWEDNTYRNHVWIYEKDKGKSYPLTTGDIDSIHPLWSPDSKSIAYLSSGGDGDMKNQIFVKSLDDYSKVKITDEKEGISNFKWDPTGKGFYYITQSKECEEIKKRKELYGDFQHVGKEHQNNCLCYIEMEKVIQNDKEEREINGVYQLTGGKDFYIHGFDISDNGKKVVCMATPSLNDHMNGDLYILDVEARELQQMNVDKLLGGSACFSPEGNKICYSASIREKEYYRNHIQESTLEIYDMNTGEVIQPLTNFDSMVMPLQWTAKGILIRWQDKTNYFIGLLAEDGTVETLREKVDGFIMDASITRDGNHITYNKAITNETFEIYLDDKKITNENSLFEGKLKSNREIISWRSSDGLEIEGVLSTPVEFDANKKYPLLVVIHGGPAWASFPIFSNCFNEKYPIEQFVEKGFIVLEPNYRGSSGYGNEFLKANYRKQGLADYDDVISGVDELVEKGMVDKDRVGVMGWSNGGYISAFCSTFSSRFKAISVGGGITNWSTHYVNTDIPYFIRMYLGNTPWNDPDIYKRTSPMTYIKSACTPTLIQHGEKDARIPITNAYELHQGLKDMEVDTELIIFKGMAYSSDQPGVHVAIMKQNLMWFSHYILGESMEDFSTI | not soluble
MASSEGLASVDPWSFRQNFNIDSWLLSDSFSHDSDILAKALHRSISTSTESSPLSPSSFFDSSTAAVDFSPPQTLSNVSFGSDPEIPAASALGLGKRKRGPGVSGGKQTKRRSRVSNKKSQTTFITADAANFRQMVQQVTGAKFLGSSNSIFAPIVKPEPHRLASRLPPSCGNLDRSSAVPTLDTSSFLSNHHQENIITDLGAPTGSFHHQSSAGTTTANVGGGSSAVELDSYPSFPTLESWKVM | not soluble
MTKKVGIVDTTFARVDMASIAIKKLKELSPNIKIIRKTVPGIKDLPVACKKLLEEEGCDIVMALGMPGKAEKDKVCAHEASLGLMLAQLMTNKHIIEVFVHEDEAKDDKELDWLAKRRAEEHAENVYYLLFKPEYLTRMAGKGLRQGFEDAGPARE | soluble
MVALRGKEIDAFLARPDAGRPIVLLYGPDAGLVRERADALIASAVDDPNDPFSLVRLDGDELSAEPSRLVDEAMTVPLFGGQRAIRVRAGSRSFASGIDTLAEMGVKDCRIVIEAGELRPESPLRKACERAKTAVAIGCYPDTERDLAKLMDDELRIANLRIAQDARAALMSFLGGDRQASRNELRKLTLYAHGKGEITLEDVMAVVADASELKLDPIVDGAFAGRPDIVETEFAKAMIAGTYPGVIISAAQRQAAWLHKSALAIADGQPASAVLDGGFPRLHFSRKPAVETALRNFSVARLAAIIEQLATAALDTRKQSTLAAAIAQRTLMAIAANAKRRGLEHHHHHH | not soluble
MSEQNTAKTLPDRNEIEESSTWRLEDIFQTDTEWEKEFQAIKELLPKLTEFKGKLGDSANNLLEALQYEDEISMRLGKLYTYAHMRYDQDTTNSVYQALNDRATNLYSQVSSSTAYIVPEILSISEDTLQTFLKENRDLSVYEHALEEITRQRPHVLSEAEEALLAEASEVMSTSSNTFGMLNNADLKFPSIKGEDGEEVEITHGRYIQFLESDDRRVREDAFKAVYETYGKYKNTFASTLSGAVKRNNFNARVRKYDSARQAALSNNNIPEAVYDQLIESVNDNLHLLHRYIDIRKRALGLDELHMYDLYTPLVPEVKMNVKYEEAQDMLLKSLHVLGDEYVDILKEAYENRWVDVYENKGKRSGAYSSGAYGTNPYILMNWHDNVNNLFTLAHEFGHSVHSYYTRKTQPHVYGDYSIFVAEVASTCNEALLNDYLLKTTEDKKERLYLLNHYLEGFRGTVFRQTMFAEFEHIIHKKVQEGHAVTPDMLTEIYYDLNKKYFGDALVIDEEIGLEWSRIPHFYYNYYVYQYATGFSAATALSKQILEEGQPAVERYINEFLKAGSSDYPIEVLKKAGVDMASPEPVKEALQVFEEKLNELEALLFEEK | not soluble
